Results: PMC13083842
pKd: −log10 of the molar value.

Target: interleukin-6 (IL-6) (human) (UniProt P05231)
Assay: SPR; IL-6 amine-coupled on a CM5 chip (Biacore T200); analytes in multi-cycle kinetics, 0.39 to 100 nM, 30 µL/min, 180 s association, 1200 s dissociation, HBS-N + 10 mM CaCl2; global fit, 1:1 model; where koff was below the detection limit KD was estimated from kon and the theoretical maximum koff

Chain of interleukin-6 (IL-6) (human) (P05231 30-212): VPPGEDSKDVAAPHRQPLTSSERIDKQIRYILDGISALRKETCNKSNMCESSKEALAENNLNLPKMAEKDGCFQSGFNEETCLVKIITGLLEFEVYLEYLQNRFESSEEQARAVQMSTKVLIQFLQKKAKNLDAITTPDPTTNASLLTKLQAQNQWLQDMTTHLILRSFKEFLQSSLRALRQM

Substance	pKd	koff [s⁻¹]	kon [M⁻¹ s⁻¹]
sIL-6R-TGN 1:5 (from UniProt P08887 20-355) (receptor)	6.37	–	–
soluble IL-6 receptor (sIL-6R) (from UniProt P08887 20-355)	6.88	0.035	248000
